From the Human Domainome abundance scans (Beltran et al. 2025) come the findings set out here.

B1: Protein piccolo, residues 1058 to 1114; numbered along this chain, Q9Y6V0 (parent)
chain: TCPLCKTELNIGSKDPPNFNTCTECKNQVCNLCGFNPTPHLTEIQEWLCLNCQTQRA

± gives the uncertainty stated by the source.

Variants of B1 are the subject of the data set. The experiment in a line: abundance fitness (aPCA) (normalised: wild type 0, dead -1); higher = more abundant; growth selection in yeast, the domain comes from the species named. Particulars: Homo sapiens.
As to TCPLCKTELNIKSKDPPNFNTCTECKNQVCNLCGFNPTPHLTEIQEWLCLNCQTQRA, the abundance fitness is -0.216 ± 0.16.

On to TCPLCKTELNIESKDPPNFNTCTECKNQVCNLCGFNPTPHLTEIQEWLCLNCQTQRA, for which the abundance fitness was found to be 0.092 ± 0.11.

In the case of TCPLCKTELNIGSKDPPNFNTCTECKNQVCNLCGFNPTPHLTEIQEWLCLACQTQRA, the abundance fitness was -0.015 ± 0.16.

In the case of TCPLCKTELNIGSKDPPNFNTCTECKNQVCNLCGFNPTPHLTWIQEWLCLNCQTQRA, the abundance fitness was -0.09 ± 0.33.

As for TCPLCKTELNIGSKDPPNFNTCTECKNQVCNRCGFNPTPHLTEIQEWLCLNCQTQRA, the abundance fitness is 0.175 ± 0.087.

In the case of TCPLCKTELNIGSKDPPNFNTCTECKNQVCNHCGFNPTPHLTEIQEWLCLNCQTQRA, the abundance fitness was determined as 0.073 ± 0.14.

TCPLCKTELNIGSKDPPNFNTCTECKNQVCNGCGFNPTPHLTEIQEWLCLNCQTQRA: the abundance fitness was determined as 0.279 ± 0.088.

On to TCPLCKTELNIGSKDPPNFNTCTECKNQVPNLCGFNPTPHLTEIQEWLCLNCQTQRA, for which the abundance fitness was -0.807 ± 0.14.

As for TCPLCKTELNIGSKDPPNFNTCTECKNQVANLCGFNPTPHLTEIQEWLCLNCQTQRA, the abundance fitness is -0.562 ± 0.11.

As for TCPLCKTELNIGSKDPPNFNTCTECKNQVQNLCGFNPTPHLTEIQEWLCLNCQTQRA, the abundance fitness was -0.619 ± 0.15.

Regarding TCPLCKTELNIGSKDPPNFNTCTECKNQVCNLCGFNPTPHLTEIQEWYCLNCQTQRA, the abundance fitness is -0.112 ± 0.17.

In the case of TCPLCKTELNIGSKDPPNFNTCTECKNQVCNLCGFNPTPHLTEIQEWKCLNCQTQRA, the abundance fitness is -0.245 ± 0.18.

Turning to TCPLCKTELNIGSKDPPNFNTCTECKNQVCNLCGFNPTPHLTEIQEWFCLNCQTQRA, the abundance fitness was 0.09 ± 0.13.

For TCPLCKTELNIGSKDPPNFNTCTECKNQVCNLCGFNPTPHLTEIQEWHCLNCQTQRA, the abundance fitness is -0.177 ± 0.23.

For TCPLCKTELNIGSKDPPNFNTCTECKNQVCNLCGFNPTPHLTEIQEWACLNCQTQRA, the abundance fitness is -0.051 ± 0.13.

TCPLCKTELNIGSKDPPNFNTCTECKNQVCNLCGFNPTPALTEIQEWLCLNCQTQRA: the abundance fitness amounted to 0.076 ± 0.11.

Turning to TCPLCKTELNIGSKDPPNFNTCYECKNQVCNLCGFNPTPHLTEIQEWLCLNCQTQRA, the abundance fitness is 0.024 ± 0.22.

As for TCPLCKTELNIGSKDPPNFNTCIECKNQVCNLCGFNPTPHLTEIQEWLCLNCQTQRA, the abundance fitness is -0.187 ± 0.15.

As for TCPLCKTELNIGSKDPPNFNTCHECKNQVCNLCGFNPTPHLTEIQEWLCLNCQTQRA, the abundance fitness was -0.18 ± 0.3.

Consider TCPLCKTELNIGSKDPPNFNTCTECKNQVCNLCGFNPTPHLTEIQEWLCRNCQTQRA, for which the abundance fitness is 0.182 ± 0.098.

Regarding TCPLCKTELNIGSKDPPNFNTCTECKNQVCNLCGFNPTPHLTEIQEWLCPNCQTQRA, the abundance fitness is 0.329 ± 0.17.

Regarding TCPLCKTELNIGSKDPPNFNTCTECKNQVCNLCGFNPTPHLTEIQEWLCENCQTQRA, the abundance fitness came out at 0.157 ± 0.23.

Regarding TCPLCKTELNIGSKDPPNLNTCTECKNQVCNLCGFNPTPHLTEIQEWLCLNCQTQRA, the abundance fitness is -0.151 ± 0.098.

Turning to TCPLCKTELNIGSKDPPNKNTCTECKNQVCNLCGFNPTPHLTEIQEWLCLNCQTQRA, the abundance fitness is -0.737 ± 0.42.

Regarding TCPLCKTELNIGSKDPPNFNTCTECKNQVCNLCGFNPTPHLTEIQEWLCLNAQTQRA, the abundance fitness is -0.85 ± 0.16.

On to TCPLCKTELNIGSKDPPNFNTCTECKNQVCNLCGFNPTPHLTEIQEWLCLNWQTQRA, for which the abundance fitness is -1.14 ± 0.32.

On to ACPLCKTELNIGSKDPPNFNTCTECKNQVCNLCGFNPTPHLTEIQEWLCLNCQTQRA, for which the abundance fitness was -0.534 ± 0.33.

Turning to PCPLCKTELNIGSKDPPNFNTCTECKNQVCNLCGFNPTPHLTEIQEWLCLNCQTQRA, the abundance fitness was -0.239 ± 0.36.

Turning to TCPLCKTELNIGSYDPPNFNTCTECKNQVCNLCGFNPTPHLTEIQEWLCLNCQTQRA, the abundance fitness is -0.554 ± 0.21.

As for TCPLCKTELNIGSKDPMNFNTCTECKNQVCNLCGFNPTPHLTEIQEWLCLNCQTQRA, the abundance fitness is -0.491 ± 0.23.

For TCPLCKTELNIGSKDPQNFNTCTECKNQVCNLCGFNPTPHLTEIQEWLCLNCQTQRA, the abundance fitness is -0.114 ± 0.21.

Take TCPLCKTELNIGSKDPDNFNTCTECKNQVCNLCGFNPTPHLTEIQEWLCLNCQTQRA: the abundance fitness was -0.122 ± 0.17.

Regarding TCPLCKTELNIGLKDPPNFNTCTECKNQVCNLCGFNPTPHLTEIQEWLCLNCQTQRA, the abundance fitness was -0.23 ± 0.078.

For the variant TCPLCKTELNIGVKDPPNFNTCTECKNQVCNLCGFNPTPHLTEIQEWLCLNCQTQRA, the abundance fitness is -0.456 ± 0.098.

On to TCPLCKTELNIGSKDPPNFNTCTECKNQMCNLCGFNPTPHLTEIQEWLCLNCQTQRA, for which the abundance fitness is -0.039 ± 0.1.

For the variant TCPLCKTELNIGSKDPPNFNTCTECKNQCCNLCGFNPTPHLTEIQEWLCLNCQTQRA, the abundance fitness amounted to 0.028 ± 0.084.

As to TCPLCKTELNSGSKDPPNFNTCTECKNQVCNLCGFNPTPHLTEIQEWLCLNCQTQRA, the abundance fitness was -0.026 ± 0.092.

Regarding TCPLCKEELNIGSKDPPNFNTCTECKNQVCNLCGFNPTPHLTEIQEWLCLNCQTQRA, the abundance fitness is 0.094 ± 0.093.

TCPLCKTELNIGSKDPPNFNTCTECKNQVCNLCGFNPTPHLTEIQEWLCLNCLTQRA: the abundance fitness is -0.386 ± 0.11.

Consider TCPLCKTELNIGSKDPPNFNTCTECKNQVCNLCGFNPTPHLTEIQEWLCLNCMTQRA, for which the abundance fitness was -0.36 ± 0.18.

For TCPLCKTELNIGSKDPPNFNTCTECKNQVCNLCGFNPTPHLTEIQEWLCLNCGTQRA, the abundance fitness is -0.016 ± 0.1.

For TCPLCKTELNIGSKDPPNFNTCTECKNQVCNLCGFNPTPHLTEINEWLCLNCQTQRA, the abundance fitness was found to be 0.016 ± 0.29.

Regarding TCPLCKTELNIGSKDPPNFNTCTECKNQVCNLCGFNPTPHLTEIEEWLCLNCQTQRA, the abundance fitness was -0.38 ± 0.31.

With TCPLCKTELNIGSKDPPNFNTCTECKNQVCNLCGFNPTPHLTEIREWLCLNCQTQRA, the abundance fitness was -0.003 ± 0.1.

Take TCPLCKTELNIGSKDPPNFNTCTECKNQVCNLCGFNPTPHLTEIWEWLCLNCQTQRA: the abundance fitness is 0.233 ± 0.17.

As to TCPLCKTELNIGSKDPPNFNTCTEIKNQVCNLCGFNPTPHLTEIQEWLCLNCQTQRA, the abundance fitness was -0.669 ± 0.14.

In the case of TCPLCKTELNIGSKDPPNFNTCTESKNQVCNLCGFNPTPHLTEIQEWLCLNCQTQRA, the abundance fitness is -0.671 ± 0.078.
